Reference: US20230203169 (published 2023)

Columns and labels:
[1] = biological target: FcγRIIIa 158F (human) (UniProt P08637); test: BLI
[2] = biological target: T1, CD20 (human, UniProt P11836); test: FACS, Raji cells, 4C
T1 chain: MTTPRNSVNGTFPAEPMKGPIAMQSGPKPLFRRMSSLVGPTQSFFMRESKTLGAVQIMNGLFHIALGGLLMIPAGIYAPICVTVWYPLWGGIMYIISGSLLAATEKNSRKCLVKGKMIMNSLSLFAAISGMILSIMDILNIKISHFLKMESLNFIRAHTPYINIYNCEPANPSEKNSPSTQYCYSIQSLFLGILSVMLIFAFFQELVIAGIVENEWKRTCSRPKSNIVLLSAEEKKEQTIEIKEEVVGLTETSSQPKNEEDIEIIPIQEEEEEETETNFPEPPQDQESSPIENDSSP

[3] = biological target: T1, CD20; test: FACS, Raji cells, 4C
[4] = biological target: T1, CD20; test: FACS, Wil2-s cells, 4C
[5] = biological target: T1, CD20; test: FACS, Wil2-s cells, 4C

Sequence of FcγRIIIa 158F (human) (P08637 17-208): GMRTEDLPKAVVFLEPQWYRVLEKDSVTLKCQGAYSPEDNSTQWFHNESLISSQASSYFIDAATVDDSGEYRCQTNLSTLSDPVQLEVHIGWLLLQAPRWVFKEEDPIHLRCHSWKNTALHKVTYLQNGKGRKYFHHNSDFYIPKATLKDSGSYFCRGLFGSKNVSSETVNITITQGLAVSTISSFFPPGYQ

Molecule | Kd [1] | IC50 [2] | Kd [3] | Kd [4] | IC50 [5]
Obinutuzumab (Gazyva) | 226 nM | – | – | – | –
Rituximab (antibody) chain 1: QVQLQQPGAELVKPGASVKMSCKASGYTFTSYNMHWVKQTPGRGLEWIGAIYPGNGDTSYNQKFKGKATLTADKSSSTAYMQLSSLTSEDSAVYYCARSTYYGGDWYFNVWGAGTTVTVSA chain 2: QIVLSQSPAILSASPGEKVTMTCRASSSVSYIHWFQQKPGSSPKPWIYATSNLASGVPVRFSGSGSGTSYSLTISRVEAEDAATYYCQQWTSNPPTFGGGTKLEIK | – | 13.3 nM | 12.7 nM | 16 nM | 16.8 nM
